Results: publication PMC2952493 (Biochemistry, 2010)

Target: the molecule itself
Assay: SEC

B1: recombinant His-tagged TRUSS_(1-797) (natural protein, UniProt Q9JLV2 1-797, looked up)
chain: MAAAPAAAGAGASRGRRLAATAAAWGGWGGRPRPGNILLQLRQGQLTGRGLVRAVQFTETFLTERDKLSKWSGIPQLLLKLYATSHLHSDFVECQSILKEISPLLSMEAMAFVTEDRKFTQEATYPNTYIFDLFGGVDLLVEILMRPTISIRGQKLKISDEMSKDCLSILYNTCVCTEGVTKRLAEKNDFVIFLFTLMTSKKTFLQTATLIEDILGVKKEMIRLDEVPNLSSLVSNFDQQQLANFCRILAVTISEMDTGNDDKHTLLAKNAQQKKSLSLGPSAAEINQAALLSIPGFVERLCKLATRKVSESTGTASFLQELEEWYTWLDNALVLDALMRVANEESEHNQAPTVFPSLGTSEEGGLPHTSARAQLPQSMKIMHEIMYKLEVLYVLCVLLMGRQRNQVHRMIAEFKLIPGLNNLFDKLIWRKHSASALVLHGHNQNCDCSPDITLKIQFLRLLQSFSDHHENKYLLLNNQELNELSAISLKANIPEVEAVLNTDRSLVCDGKRGLLTRLLQVMKKEPAESSFRFWQARAVESFLRGTTSYADQMFLLKRGLLEHILYCIVDSECKSRDVLQSYFDLLGELMKFNVDAFKRFNKYINTDAKFQVFLKQINSSLVDSNMLVRCVTLSLDRFENQVDMKVAEVLSECRLLAYISQVPTQMSFLFRLINIIHVQTLTQENVSCLNTSLVILMLARRKERLPLYLRLLQRMEHSKKYPGFLLNNFHNLLRFWQQHYLHKDKDSTCLENSSCISFSYWKETVSILLNPDRQSPSALVSYIEEPYMDIDRDFTEE
stoichiometry N: 3
